According to publication PMC7615550, “Structural mechanism of outer kinetochore Dam1:Ndc80 complex assembly on microtubules” (Science (New York, N.Y.), 2023):

B5: Dam1 subunit of the Dam1 complex (natural protein, S. cerevisiae)
chain: MSEDKAKLGTTRSATEYRLSIGSAPTSRRSSMGESSSLMKFADQEGLTSSVGEYNENTIQQLLLPKIRELSDSIITLDSNFTRLNFIHESLADLNESLGSLLYGIMSNSWCVEFSQAPHDIQDDLIAIKQLKSLEDEKNNLVMELSNMERGIKRKKDEQGENDLAKASQNKQFNQPLFPSSQVRKYRSYDNRDKRKPSKIGNNLQVENEEDYEDDTSSEASFVLNPTNIGMSKSSQGHVTKTTRLNNNTNSKLRRKSILHTIRNSIASGADLPIENDNVVNLGDLHPNNRISLGSGAARVVNGPVTKNRNSMFSGRAERKPTESRHSVAKKTEKKINTRPPFR
notes: Dam1, S. cerevisiae, as a subunit of the reconstituted Dam1 complex; Stood in the assay inside the whole Dam1c; also called Dam1^Staple (residues 1-26); Dam1^C-ter; source: purified as part of Dam1c
B6: Spc34 subunit of the Dam1 complex (natural protein, S. cerevisiae)
chain: MGESLDRCIDDINRAVDSMSTLYFKPPGIFHNAILQGASNKASIRKDITRLIKDCNHDEAYLLFKVNPEKQSVSRRDGKEGVFDYVIKRDTDMKRNRRLGRPGEKPIIHVPKEVYLNKDRLDLNNKRRRTATTSGGGLNGFIFDTDLIGSSVISNSSSGTFKALSAVFKDDPQIQRLLYALENGSVLMEEESNNQRRKTIFVEDFPTDLILKVMAEVTDLWPLTEFKQDYDQLYHNYEQLSSKLRFIKKEVLLQDDRLKTMSQYHPSSSHDVAKIIRKEKDEIRRLEMEIANLQE
notes: Spc34, S. cerevisiae, as a subunit of the reconstituted Dam1 complex; Stood in the assay inside the whole Dam1c; source: purified as part of Dam1c

Legend:
[1] = molecular target: Ndc80 complex (heterotetramer of Ndc80, Nuf2, Spc24 and Spc25, S. cerevisiae), wild type (S. cerevisiae) (UniProt P40460)
[2] = molecular target: microtubules (α/β-tubulin) (UniProt P02554); assay: optical trap force-rupture assay; rupture of outer kinetochore - microtubule attachments; each event is the maximum trap force before rupturing; medians; Ndc80c alone
[3] = molecular target: microtubules (α/β-tubulin) (UniProt P02554); assay: optical trap force-rupture assay; settings: Ndc80c alone (no Dam1c) on microtubules; N=81 (parent N=119); parent: 5.4
[4] = molecular target: Dam1 complex (ten-subunit, S. cerevisiae), wild type, P53267;Q12248;P35734;P69851;P36131;Q03954; assay: optical trap force-rupture assay; settings: Ndc80c + Dam1c on microtubules; N=154 (parent N=150); parent: 10.4
[5] = molecular target: Dam1 complex (ten-subunit, S. cerevisiae), wild type (S. cerevisiae) (UniProt P53267); assay: cryo-EM structure; outer kinetochore Dam1c:Ndc80c:microtubule complexes assembled on cryo-EM grids by step-wise addition of taxol-stabilized microtubules, Ndc80c, and Dam1c
[6] = molecular target: T1, Ndc80 subunit of the Ndc80 complex (S. cerevisiae, UniProt P40460 1-691); assay: as above; settings: both partners purified
T1 construct: Ndc80, S. cerevisiae, as a subunit of the reconstituted Ndc80 complex; Stood in the assay inside the whole Ndc80c; also called Ndc80^CH; Ndc80^CC; source: purified as part of Ndc80c

[7] = molecular target: B6; assay: as above; settings: both partners purified
[8] = molecular target: B5; assay: as above; settings: both partners purified
[9] = molecular target: T2, Ndc80 complex (heterotetramer of Ndc80, Nuf2, Spc24 and Spc25, S. cerevisiae), wild type (S. cerevisiae, UniProt P40460 1-691; P33895 1-451; Q04477 1-213; P40014 1-221); assay: as above; settings: both partners purified
T2 construct: Ndc80 subunit of the S. cerevisiae Ndc80 complex; Nuf2 subunit of the S. cerevisiae Ndc80 complex; Spc24 subunit of the S. cerevisiae Ndc80 complex (no cryo-EM density visible); Spc25 subunit of the S. cerevisiae Ndc80 complex (no cryo-EM density visible); also called Ndc80c^CH; Ndc80^CC:Nuf2^CC; source: purified; copies: + + +
T2 sequence (P40460 whole entry, chain 1 of 4): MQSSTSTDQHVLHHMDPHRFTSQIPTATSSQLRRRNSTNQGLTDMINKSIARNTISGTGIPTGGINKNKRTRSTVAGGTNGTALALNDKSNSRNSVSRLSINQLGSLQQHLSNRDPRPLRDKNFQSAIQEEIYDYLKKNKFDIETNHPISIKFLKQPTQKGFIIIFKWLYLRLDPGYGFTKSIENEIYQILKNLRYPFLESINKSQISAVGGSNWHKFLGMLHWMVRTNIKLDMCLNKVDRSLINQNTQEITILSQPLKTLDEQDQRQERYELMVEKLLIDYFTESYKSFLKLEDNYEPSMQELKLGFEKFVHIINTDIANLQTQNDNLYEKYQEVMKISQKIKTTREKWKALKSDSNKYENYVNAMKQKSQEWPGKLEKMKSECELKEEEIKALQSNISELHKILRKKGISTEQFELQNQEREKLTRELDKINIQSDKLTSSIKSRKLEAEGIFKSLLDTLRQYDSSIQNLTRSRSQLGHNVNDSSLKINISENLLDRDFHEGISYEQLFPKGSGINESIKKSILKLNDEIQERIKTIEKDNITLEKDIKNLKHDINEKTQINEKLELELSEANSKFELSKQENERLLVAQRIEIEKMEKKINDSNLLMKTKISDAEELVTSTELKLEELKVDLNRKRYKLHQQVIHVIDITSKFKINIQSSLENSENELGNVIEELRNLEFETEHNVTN
T2 sequence (P33895 whole entry, chain 2 of 4): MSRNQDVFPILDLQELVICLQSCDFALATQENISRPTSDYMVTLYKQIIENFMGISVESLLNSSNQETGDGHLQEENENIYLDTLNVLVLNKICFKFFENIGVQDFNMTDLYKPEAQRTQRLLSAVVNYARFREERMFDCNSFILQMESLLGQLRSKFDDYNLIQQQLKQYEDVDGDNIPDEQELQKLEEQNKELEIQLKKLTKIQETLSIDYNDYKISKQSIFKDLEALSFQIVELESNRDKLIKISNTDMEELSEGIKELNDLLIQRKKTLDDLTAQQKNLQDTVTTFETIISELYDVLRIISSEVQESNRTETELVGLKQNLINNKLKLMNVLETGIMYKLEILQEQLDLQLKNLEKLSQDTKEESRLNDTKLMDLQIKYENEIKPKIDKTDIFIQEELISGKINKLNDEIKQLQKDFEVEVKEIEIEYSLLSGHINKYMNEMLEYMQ
T2 sequence (Q04477 whole entry, chain 3 of 4): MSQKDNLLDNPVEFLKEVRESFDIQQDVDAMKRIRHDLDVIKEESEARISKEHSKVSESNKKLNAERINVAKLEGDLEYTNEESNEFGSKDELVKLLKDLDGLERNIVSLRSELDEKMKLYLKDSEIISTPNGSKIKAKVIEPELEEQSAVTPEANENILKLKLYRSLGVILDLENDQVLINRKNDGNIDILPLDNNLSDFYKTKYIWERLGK
T2 sequence (P40014 whole entry, chain 4 of 4): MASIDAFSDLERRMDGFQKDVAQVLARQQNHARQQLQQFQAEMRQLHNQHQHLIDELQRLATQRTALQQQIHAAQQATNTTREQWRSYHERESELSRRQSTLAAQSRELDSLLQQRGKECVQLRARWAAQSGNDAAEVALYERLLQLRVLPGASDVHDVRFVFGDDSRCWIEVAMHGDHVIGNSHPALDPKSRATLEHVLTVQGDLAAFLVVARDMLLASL

Ndc80 complex (heterotetramer of Ndc80, Nuf2, Spc24 and Spc25, S. cerevisiae), wild type (S. cerevisiae), sequence (P40460 whole entry, chain 1 of 4): as the sequence (P40460 whole entry, chain 1 of 4) above
Ndc80 complex (heterotetramer of Ndc80, Nuf2, Spc24 and Spc25, S. cerevisiae), wild type (S. cerevisiae), sequence (P33895 whole entry, chain 2 of 4, further chain): as the sequence (P33895 whole entry, chain 2 of 4) above
Ndc80 complex (heterotetramer of Ndc80, Nuf2, Spc24 and Spc25, S. cerevisiae), wild type (S. cerevisiae), sequence (Q04477 whole entry, chain 3 of 4, further chain): as the sequence (Q04477 whole entry, chain 3 of 4) above
Ndc80 complex (heterotetramer of Ndc80, Nuf2, Spc24 and Spc25, S. cerevisiae), wild type (S. cerevisiae), sequence (P40014 whole entry, chain 4 of 4, further chain): as the sequence (P40014 whole entry, chain 4 of 4) above
T1 sequence (P40460 whole entry, one chain of several): as the sequence (P40460 whole entry, chain 1 of 4) above

Dam1 complex with the Dam1 C-terminal mutant (I258/L259/I262 mutated) (from UniProt P53267 1-343; Q12248 1-94; P35734 1-292; P69851 1-72; P36131 1-295; Q03954 1-165)
median rupture force of Ndc80c - microtubule attachments in the presence of the Dam1 C-ter mutant Dam1c (optical trap force-rupture assay) [1]: 5.5 pN

Ndc80 complex (heterotetramer of Ndc80, Nuf2, Spc24 and Spc25, S. cerevisiae), wild type (from UniProt P40460 1-691; P33895 1-451; Q04477 1-213; P40014 1-221)
median rupture force [2]: 5.4 pN

Ndc80 complex (heterotetramer of Ndc80, Nuf2, Spc24 and Spc25, S. cerevisiae), wild type (from UniProt P40460;P33895;Q04477;P40014) E568R; V590W; L594E; E597R
other: median rupture force [3]: 4.5 pN | other: median rupture force [4]: 8.9 pN

Dam1 complex (ten-subunit, S. cerevisiae), wild type (from UniProt P53267 1-343; Q12248 1-94; P35734 1-292; P69851 1-72; P36131 1-295; Q03954 1-165)
median rupture force of Ndc80c - microtubule attachments in the presence of Dam1c (optical trap force-rupture assay) [1]: 10.4 pN | stoichiometry N [5]: 16

B1: Spc19 subunit of the Dam1 complex (natural protein, S. cerevisiae)
chain: MTDALEQSVLALEGTVSVLKDSVESLKCANEPSTNLASTMLQTKRVFRLVPEYDVERSKLDLIEEVEPLVRTLGDKLRKSMGRMQRELDTLQQTYELNDLRLKKNISMDDDDALNSPDMGQEYEGRDADDVVMMASSTNEELEELKKLKEKKKQLENKLEILKQK
notes: Spc19, S. cerevisiae, as a subunit of the reconstituted Dam1 complex; Stood in the assay inside the whole Dam1c; source: purified as part of Dam1c
binding result [6]: binds | binding result [7]: binds

B2: Dad1 subunit of the Dam1 complex (natural protein, S. cerevisiae)
chain: MMASTSNDEEKLISTTDKYFIEQRNIVLQEINETMNSILNGLNGLNISLESSIAVGREFQSVSDLWKTLYDGLESLSDEAPIDEQPTLSQSKTK
notes: Dad1, S. cerevisiae, as a subunit of the reconstituted Dam1 complex; Stood in the assay inside the whole Dam1c; also called Dad1^A; source: purified as part of Dam1c
binding result [8]: binds

B3: Dad4 subunit of the Dam1 complex (natural protein, S. cerevisiae)
chain: MENPHEQVQANILSRIIGNVKRLNESVAILNQELVTINNRNKNLEIMGAICDNYHSSVQFNLEATNNKKPPL
notes: Dad4, S. cerevisiae, as a subunit of the reconstituted Dam1 complex; Stood in the assay inside the whole Dam1c; also called Dad4^B; source: purified as part of Dam1c
binding result [8]: binds

B4: Ask1 subunit of the Dam1 complex (natural protein, S. cerevisiae)
chain: MDSASKEETLEKLDQEITVNLQKIDSNLSFCFHKITQDIIPHVATYSEICERIMDSTEWLGTMFQETGLVNLQANAAAPVGNAPVKSLVSNNVGIFPTSAEEASRQSQTDNGPNEADSAVHVNRDVHSMFNNDSIDDFHTANITSTGQILKLPDSSDEDTGSEAVPSREQTDLTGEGHGGADDEQDESTIQRQSRKRKISLLLQQQYGSSSSMVPSPIVPNKMRKQLAHEEHINNDGDNDDENSNNIESSPLKQGHHHPKGQADDNNEGPDEEESTKEVPKPGTIIHFSTNR
notes: Ask1, S. cerevisiae, as a subunit of the reconstituted Dam1 complex; Stood in the assay inside the whole Dam1c; also called Ask1^B; source: purified as part of Dam1c
binding result [8]: binds

B5
binding result [9]: binds

B6
binding result [9]: binds
